Where only a bound is given, the exact number is not on record here.

In publication PMC9191346 one finds rupture force of the DNA tether bridged by the oligomeric BLM data, which are given here for 1 substance.

The target of the assay is enhanced green fluorescent protein-labeled BLM (BLM-eGFP) (not stated (Gallus gallus or human BLM cloned)). Kind of assay: optical tweezers with confocal fluorescence microscopy.

With “enhanced green fluorescent protein-labeled BLM (BLM-eGFP) (domain or fragment)”, the rupture force of the DNA tether bridged by the oligomeric BLM was < 300 pN.
